How the values were obtained:
[1] = target: T1, human GPIIb/IIIa on human platelets (human, UniProt P08514 32-1039; P05106 27-788); experiment: flow cytometry, hybridoma supernatant on human platelets
T1 construct: Native receptor on gel-purified human platelets or platelets in diluted human whole blood; also called platelets in human whole blood
Method: Hybridomas were then screened for binding to human and cynomolgus monkey platelets using flow cytometry, and for binding to GPIIb/IIIa using Enzyme-linked immunosorbent assays (ELISA). To determine binding to human and money platelets, gel-purified human or monkey (cynomolgus) platelets in Tyrode's buffer were incubated with hybridoma supernatant. Following a 30 minute incubation, cells were fixed in 1% formaldehyde. Following fixation, cells were washed in Tyrode's buffer and a detection antibody was added (Jackson Immunoresearch goat anti-mouse IgG-PE conjugated). Antibody binding was detected by flow cytometry.

[2] = target: T2, mouse platelets (mouse GPIIb/IIIa) (mouse, UniProt Q9QUM0 32-1033; O54890 26-787); experiment: binding to platelets in mouse blood (method not detailed; flow cytometry implied)
T2 construct: whole, on cells; the receptor is inferred from the antibody's target
T2 sequence (Q9QUM0 32-1033, chain 1 of 2): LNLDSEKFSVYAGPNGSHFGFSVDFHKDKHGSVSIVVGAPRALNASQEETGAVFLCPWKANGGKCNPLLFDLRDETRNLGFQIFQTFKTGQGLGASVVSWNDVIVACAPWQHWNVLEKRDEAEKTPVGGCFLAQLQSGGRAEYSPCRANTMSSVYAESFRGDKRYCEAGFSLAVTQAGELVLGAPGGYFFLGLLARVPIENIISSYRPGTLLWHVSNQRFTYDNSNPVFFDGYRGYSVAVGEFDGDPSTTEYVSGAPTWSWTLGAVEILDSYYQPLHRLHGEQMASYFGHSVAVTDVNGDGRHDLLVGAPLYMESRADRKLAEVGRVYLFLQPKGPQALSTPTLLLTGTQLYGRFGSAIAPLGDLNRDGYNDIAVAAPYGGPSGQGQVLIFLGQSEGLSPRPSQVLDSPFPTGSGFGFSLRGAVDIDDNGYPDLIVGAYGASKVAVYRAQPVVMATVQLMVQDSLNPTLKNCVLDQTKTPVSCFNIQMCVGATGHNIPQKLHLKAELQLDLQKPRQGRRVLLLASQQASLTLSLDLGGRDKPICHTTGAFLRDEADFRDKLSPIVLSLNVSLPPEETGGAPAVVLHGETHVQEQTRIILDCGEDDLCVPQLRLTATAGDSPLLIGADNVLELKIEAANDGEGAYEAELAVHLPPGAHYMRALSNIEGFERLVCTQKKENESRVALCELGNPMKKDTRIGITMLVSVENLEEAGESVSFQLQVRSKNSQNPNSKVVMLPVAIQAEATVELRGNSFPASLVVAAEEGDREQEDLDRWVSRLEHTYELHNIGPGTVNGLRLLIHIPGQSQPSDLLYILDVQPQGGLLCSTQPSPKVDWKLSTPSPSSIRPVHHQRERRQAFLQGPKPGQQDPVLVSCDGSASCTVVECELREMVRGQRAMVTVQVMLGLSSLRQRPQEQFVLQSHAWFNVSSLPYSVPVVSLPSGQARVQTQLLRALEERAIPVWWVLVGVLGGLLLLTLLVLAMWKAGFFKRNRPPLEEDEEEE
T2 sequence (O54890 26-787, chain 2 of 2): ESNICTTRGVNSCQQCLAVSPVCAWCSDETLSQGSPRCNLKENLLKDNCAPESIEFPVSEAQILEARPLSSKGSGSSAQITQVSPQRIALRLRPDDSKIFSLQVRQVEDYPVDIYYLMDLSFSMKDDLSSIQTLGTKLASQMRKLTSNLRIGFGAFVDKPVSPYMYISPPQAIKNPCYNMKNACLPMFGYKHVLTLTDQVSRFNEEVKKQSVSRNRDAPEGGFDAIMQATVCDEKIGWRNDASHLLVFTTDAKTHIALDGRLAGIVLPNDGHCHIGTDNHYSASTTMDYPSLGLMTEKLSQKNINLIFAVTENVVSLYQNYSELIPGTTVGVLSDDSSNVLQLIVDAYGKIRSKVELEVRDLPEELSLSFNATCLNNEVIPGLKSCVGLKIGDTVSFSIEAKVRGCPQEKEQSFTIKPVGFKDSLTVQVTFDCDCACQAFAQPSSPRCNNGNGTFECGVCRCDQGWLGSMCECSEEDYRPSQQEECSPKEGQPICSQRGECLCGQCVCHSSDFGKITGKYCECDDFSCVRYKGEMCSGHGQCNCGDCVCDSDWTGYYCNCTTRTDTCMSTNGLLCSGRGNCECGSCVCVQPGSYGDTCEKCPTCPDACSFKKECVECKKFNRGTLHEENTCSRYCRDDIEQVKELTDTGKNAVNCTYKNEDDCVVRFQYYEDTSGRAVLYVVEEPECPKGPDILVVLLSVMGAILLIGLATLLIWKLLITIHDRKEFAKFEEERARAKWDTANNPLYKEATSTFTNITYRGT

[3] = target: T1, human GPIIb/IIIa on human platelets; experiment: flow cytometry, protein spiked in diluted (1:50) human whole blood, FITC-anti-FVII on CD42b-stained platelets

Row | Binder | binding result [1] | binding result [2] | binding result [3]
1 | 18F7 (antibody, V domains shown, Mouse monoclonal from BALB/c hybridoma, tested as hybridoma supernatant; also called 18F7 antibody) VH: QVQLKESGPGLVAPSQSLSITCTVSGFSLTSYGVSWVRQPPGKGLEWLGIIWGDGSTNYHSVLKSRLSISKDNSKSQVFLKLNSLQTDDTATYYCAKQDFDVWGAGTTVTVSS VL: DVQMIQSPFSLSASLGDIVTMTCQASQGTSINLNWFQQKPGKAPKLLIYGVSNLEDGVPSRFSGSRYGTDFTLTIGSLEDEDMATYFCLQHSYLPYTFGGGTKLEIKR | binds | – | –
2 | 12B2 (antibody, V domains shown, Mouse monoclonal from BALB/c hybridoma, tested as hybridoma supernatant; also called 12B2 antibody) VH: QVQLQQSGAELTKPGASVKISCKATGYTFSSYWIEWVKQRPGHGLEWIGEILPGSGITKYNDKFKGKATFTADTSSNTAYMQLSSLTSEDSAVYSCARLISYYYAMDYWGQGTSVTVSS VL: DIQMTQTTSSLSASLGDRVTISCRASQDISNYLNWYQQKPDGTVKLLIYYTSRLHSGVPSRFSGSGSGTDYSLTISNLEQEDIATYFCQQGNTLPPTFGGGTKLEIKR | binds | – | –
3 | 28C2 (antibody, V domains shown, Mouse monoclonal from BALB/c hybridoma, tested as hybridoma supernatant; also called 28C2 antibody) VH: QVTLKASGPGIVQPSQTLSLTCSFSGFSLNTSGMGVGWIRQPSGKGLEWLAHIWWDDDKRYNPALKSRLTISKDTSNNQIFLKIASVDTADTATYYCARSHYYGTFYFDYWGQGTTLTVSS VL: DVQITQSPSYLAASPGETITINCRASKSISKYLAWYQEKPGTTYKLLIYSGSTLQSGIPSRFSGSGSGTDFTLTISSLEPEDFAMYYCQQHIEYPWTFGGGTKLEIKR | binds | – | –
4 | 9D6 (antibody, V domains shown, Mouse monoclonal from BALB/c hybridoma, tested as hybridoma supernatant; also called 9D6 antibody) VH: QVTLKESGPGILQPSQTLSLTCSFSGFSLSTSGMGVGWIRQSSGKGLEWLAHIWWDDDKRYNPTLKSRLTISKDTSNNQVFLKIANMDTADIATYYCARSHYNGTFYFDFWGQGITLTVSS VL: DVQITQSPSYLAASPGETITINCRASKSISKYLAWYQEKPGKTNKLLIYSGSTLQSGIPSRFSGSGSGTDFTLTISTLEPEDFAMYYCQQHIEYPWTFGGGTKLEIKR | binds | – | –
5 | 28F4 (antibody, V domains shown, Mouse monoclonal from BALB/c hybridoma, tested as hybridoma supernatant; also called 28F4 antibody) VH: EVQLVESGGDLVKPGGSLKLSCAASGFTFSNYGMSWVRQTPDKRLEWVATISSGGTYTYYPDSVKGQFTIFRDNAKNTLYLQMSSLKSEDTAMYYCTRRDYDYEGFAYWGQGTLVTVS VL: DIVLTQSPATLSVTPGDSVSLSCRASQSISNNLHWYQQKSHESPRLLIKYASHSISGIPSRFSGSGSGTDFTLSINSVETEDFGMYFCQQSNNWPFTFGSGTKLEIKR | binds | – | –
6 | 34D10 (antibody, V domains shown, Mouse monoclonal from BALB/c hybridoma, tested as hybridoma supernatant (detected with anti-mouse IgG); also called monoclonal antibody 34D10; 34D10 antibody) VH: EVKLVESGGGLVKPGGSLKLSCAASGFTFSAYAMSWVRQTPEKRLEWVASISSGGTTYYPDSVKRRFTISRDNARNILYLQMSSLRSEDTAMYYCTRGGDYGYALDYWGQGTSVTVSS VL: ENVLTQSPAIMSASLGEKVTMSCRASSSVNYMYWYQQKSDASPKLWIYYTSNLAPGVPARFSGSGSGNSYSLTISSMEGEDAATYYCQQFSSSPWTFGGGTKLEIKR | binds | no binding | –
7 | 36A8 (antibody, V domains shown, Mouse monoclonal from BALB/c hybridoma, tested as hybridoma supernatant; also called 36A8 antibody) VH: EVRLVESGGGLVKPGGSLKLSCAASGFTFSTYAMSWVRQTPEKRLEWVASINGGGSTYYPDSVKGRFTISRDNARNILYLQMRSLRSEDTAMYYCARGGDYGYALDYWGQGTSVTVSS VL: ENVLTQSPAIMSASLGEKVTMNCRASSSVNYMYWYQQKSDASPKLWIFYTSNLAPGVPARFSGSGSGNSYSLTISSMEGEDAATYYCQQFSSSPWTFGGGSKLEIKR | binds | – | –
8 | 4B11 (antibody, V domains shown, Mouse monoclonal from BALB/c hybridoma, tested as hybridoma supernatant; also called 4B11 antibody) VH: EVKLVESGGGLVKPGGSLKLSCAASGFTFSSYAMSWVRQTPEKRLAWVASISSGGNIYFPDSVKGRFTISRDDARNILYLQMRSLRSEDTAMYYCARGGDYGYAMDYWGQGTSVTVSS VL: ENVLTQSPAIMSASLGEKVTMNCRASSSVNYMYWYQQKSDASPKLWIFYTSNLAPGVPARFSGSGSGNSYSLTISSMEGEDAATYYCQQFSSSPWTFGGGSKLEIKR | binds | – | –
9 | 1H6 (antibody, V domains shown, Mouse monoclonal from BALB/c hybridoma, tested as hybridoma supernatant; also called 1H6 antibody) VH: QVQLQQSGAELVRPGTSVKVSCKASGYAFTNYLIEWVKQRPGQGLEWIGVINPGSGGTNYNEKFKGKATLTADKSSSTAYMHLSSLTSDDSAVYFCARGRYEWYFDVWGAGTTVTVSS VL: DIQMTQTTSSLSASLGDRVTISCRASQDITNYLNWYQRKPDGTVKLLIYYTSRLHSGVPSRFSGSGSGTDYSLTISNLEQEDIATYFCQQGYTLPYTFGGGTKLEIKR | binds | – | –
10 | 38A8 (antibody, V domains shown, Mouse monoclonal from BALB/c hybridoma, tested as hybridoma supernatant; also called 38A8 antibody) VH: QVQLQQSGAELVRPGTSVKVSCKASGYAFTNYLIEWIKQRPGQGLEWIGVINPGSGGTNYNEKFKGKATLTADKSSSTAYMQLSSLTSDDSAVYFCARGRYEWYFDVWGAGTTVTVSS VL: DIQMTQTTSSLSASLGDRVTISCRASQDISNYLNWYLQKPDGTVKLLIYYTSRLHSGVPSRFSGSGSGTDYSLSISNLEQEDIATYFCQQGYTLPYTFGGGTKLEIKR | binds | – | –
11 | rFVIIa (enzyme, Control without targeting moiety) chain 1: ANAFLEELRPGSLERECKEEQCSFEEAREIFKDAERTKLFWISYSDGDQCASSPCQNGGSCKDQLQSYICFCLPAFEGRNCETHKDDQLICVNENGGCEQYCSDHTGTKRSCRCHEGYSLLADGVSCTPTVEYPCGKIPILEKRNASKPQGR chain 2: IVGGKVCPKGECPWQVLLLVNGAQLCGGTLINTIWVVSAAHCFDKIKNWRNLIAVLGEHDLSEHDGDEQSRRVAQVIIPSTYVPGTTNHDIALLRLHQPVVLTDHVVPLCLPERTFSERTLAFVRFSLVSGWGQLLDRGATALELMVLNVPRLMTQDCLQQSRKVGDSPNITEYMFCAGYSDGSKDSCKGDSGGPHATHYRGTWYLTGIVSWGQGCATVGHFGVYTRVSQYIEWLQKLMRSEPRPGVLLRAPFP | – | – | no binding

Reference: US20160115467A1 (Biogen, published 2016)
